Among the data in a protein production outcome set (Wang et al. 2014) are protein production values, retold here.

This data set in a line: label from the status in PepcDB records.

For the sequence “MASYYSGFLGCEEPHFLESCSLCRKHLGLNSDIFMYRGDKAFCSNECREEQIESDEAKERKWKKSSRSLRKNSSETKESAAGNTVRTGTLVVA”, the protein production entry was “failed”. Regarding “MATEPEAAEPVVPSLVDRYFTRWYKPDVKGKFCEDHCILQHSNRICVITLAESHPVLQSGKTIKSISYQISTNCSRLQNKVSGKFKRGAQFLTELAPLCKIYCSDGEEYTVSSCVRGRLMEVNENILHKPSILQEKPSTEGYIAVVLPKFEESKSITEGLLTQKQYEEVMVKRINATTATS”, the protein production entry was “failed”. “MATEPIRIGVVGASPDRGWAADAHLPALQHLPQYKITAVGTRRADSAHRAARRYGATHAFTDPRSLAAHPDVELVAIVVKVPDHARLVEAALAAGKHVLCEWPLARTTEEAAQLTAAAHGAGVVNAVGLQARHTPTVVRARELIRQGYVGRVTSVTVYSTRGVAAGGRLPAAFAYTLDSTNGAGTLEVAGGHTLDAVQYLLGREMTGLSAALSVQHPRITLDEDARQTGATSPDHVALHATLEGGAALVVHIHDAKNSGAGTRIEISGTQGELAIVSTGPRSGSGLQISELALLGAQGTEPSGQELPFPGSWGTAVPADGLDAAQHTMAVQYAALAADIREGGSRVPRFADGIELHRLLDAVRLSSATGCRLERRAGERWPVSSPWPRRRRSR”: the protein production entry is recorded as “failed”. As for “MATEPPKIVWNEGKRRFETEDHEAFIEYKMRNNGKVMDLVHTYVPSFKRGLGLASHLCVAAFEHASSHSISIIPSCSYVSDTFLPRNPSWKPLIHSEVFKSSI”, the protein production entry is “not failed”.

Regarding “MATFDTRHRTALTMSADRLEQLKTFHEEDPEDPFTRYALAQEHLKHDNASRALALFEELVETDPDYVGTYYHLGKLYERLDRTDDAIDTYAQGIEVAREEGTQKDLSELQDAKLKAEGLEHHHHHH”, the protein production result was “not failed”.

As to “MATFEEVSVLGFEEFDKAVKEHESKTIFAYFSGSKDTEGKSWCPDCVEAEPVIREGLKHVTEDCVFIYCQVGDKPYWKDPNNDFRQKLKITAVPTLLKYGTPQKLVESECCQSSLVEMIFSED”, the protein production entry is “not failed”. The result for “MATFFLVSFLSFSKWKEKRQVGLWGPEAAVTEEEEEEAGARRSGPGLAGRRLRGKGRRGRVASPAGRPDTLSRRGAGERAGCLGAGDRGLRHSDRHSPLGRGRAAPGMATSRQTASPRTRMDYLYSCQVDAMHSGMSVTRLVTQPDVLPAHRRRDIKMAAPRSCVLWSYCGHGWSRLAGDCRLPGFRRSWLGATLSARSLSQEKRAAETHFGFETVSEKEKGGKVYQVFQSVARKYDLMNDMMSLGIHRAWKDLLIRKMHPLPGTQLLDVAGGTGDIAFRFLSYVQTQHERKQRRQLRTRQNLSWEEIARKYQSKEDPLGGSLVMVCDINREMLKVGKQKALARGHTADLCECDAKLVYTVSFSSRSFTQALQEAHRVLKPGGRFLCLEFSQVNDPLISRLYDLYSFQVIPVIGEVIAGDWKSYQYLVESIRKFPNQEEFKDMIEDAGFQKVTYESLTSGIVAIHSGFKL” reads “failed”; that for “MATFRKRGKYWEYRVKYTDSAGKQLVASHGGYRLKSSAQDAAEAVEDDLKRGGDPSKQDVLLLDYWDQWAEAYRINGKSINTVYRYKLFRKHLKSRFDGRKLNSIRPIEWQKFINDFAAGKDRKEKTTRKRPRERSKDIVTKMNSYVRGMVKAAINERILFSDFTFGTKTSGVRSSGKVKVLDSRDFAKVKAIAIERASYRNIGALAVYIGSMTGMRISEVLALTWPDIDTKLCVIHVTRSWDHLYGTGFKPTKTDSSVRDIEISPSVIELLNKIHQEQAASYLRTGYRDEDQMIMRDPRHNVITDSACNKALHVIQNKAGIPEDKQITFHGLRHSHVSYLISKGVDIYYISKRLGHSDVTITMKVYGHLLDSQRKQEAHKAVLFMDQI”, “failed”. Then “MATGGLAIIQSMKHKLPPSERKLADYILAHPHKAIESTVNEISALANSSDAAVIRLCKSLGLKGFQDLKMRVAGDLAKPTFQGYRDIVPHEPLPSISEKTAGNAIQAIQDTSDLMDYKELERAVSLLLKAHTVHFIGLGASGIVAKDAQQKWLRIHKQATAFTDTHLVASLIANADKDDIVFAISFSGETQEIVELFAMAKEKGITTISLTQFSQTSVSALADVPLYTAHSNEALIRSAATSSRLAQLFIIDVLFLGMAAEQYETTTGYIDKTRAAIQSMRIK”, with “not failed”; and “MATMNEKDYYEILGVSKDATSRDIQKAFQQKARKLHPDVNKEPDAEEKFKEVSEAYAVLSDEQKRARYDAMRSGNPFAGAPTASPYGGGYAGSAGYGNPFDGGFPFGGAWGQPRRGQAAYNPESGANVVVDIKLDAKEAKSGAHKTVRYTRFDTCGHCGGSGSVSSEHAHTCPSCGGRGHIDVDLSFLFGAGTFQTVCPECGGSGKVVADPCPDCGGSGRIRVTSEQTIEFPAGTHDGDEVRIPNMGHAGTNGASGGDLVGRAHVEAERLEGKARTGFYLMGIIAPFLVLSAISGVFSAFAMMCFIPFAMGLFMVLSDGVLHRSLLWWKRGAMQFANGFANGFMFALVSVWFASCSQQAMLSPYGMQ”, with “failed”. As for “MATNIPCEVVAFSDRKLKPLIYVYSFPGLTRRTKLKGNILLDYTLLSFSYCGTYLASYSSLPEFELALWNWESSIILCKKSQPGMDVNQMSFNPMNWRQLCLSSPSTVSVWTIERSNQEHCFRARSVKLPLEDGSFFNETDVVFPQSLPKDLIYGPVLPLSAIAGLVGKEAETFRPKDDLYPLLHPTMHCWTPTSDLYIGCEEGHLLMINGDTLQVTVLNKIEEESPLEDRRNFISPVTLVYQKEGVLASGIDGFVYSFIIKDRSYMIEDFLEIERPVEHMTFSPNYTVLLIQTDKGSVYIYTFGKEPTLNKVLDACDGKFQAIDFITPGTQYFMTLTYSGEICVWWLEDCACVSKIYLNTLATVLACCPSSLSAAVGTEDGSVYFISVYDKESPQVVHKAFLSESSVQHVV”, the protein production result is given as “failed”.

Take “MATNSSTEQSLTKKVWNLATTLAGQGIGFTDYITQLTYLLFLKMDAENVEMFGEESAIPTGYQWADLIAFDGLDLVKQYEETLKLLSELDNLIGTIYTKAQNKIDKPVYLKKVITMIDEEQWLIMDGDVKGAIYESILEKNGQDKKSGAGQYFTPRPLIQAMVDCINPQMGETVCDPACGTGGFLLTAYDYMKGQSASKEKRDFLRDKALHGVDNTPLVVTLASMNLYLHGIGTDRSPIVCEDSLEKEPSTLVDVILANPPFGTRPAGSVDINRPDFYVETKNNQLNFLQHMMLMLKTGGRAAVVLPDNVLFEAGAGETIRKRLLQDFNLHTILRLPTGIFYAQGVKANVLFFSKGQPTKEIWFYDYRTDIKHTLATNKLERHHLDDFVSCYNNRVEIYDAENNPQGRWRKYPVDEIIARDKTSLDITWIKPGGEVDDRSLAEL”: the protein production result is “not failed”. Turning to “MATPAYMSITGTKQGLITAGAFTADSVGNTYQEGHEDQVMVQGFSHELIIPRDPQSGQPTGQRVHKPVKITKVFDKSSPLLLAALTSGERLTEITIQWYRTSAAGTQEHYYTTKLEDAIIVDIKDYMHNCQDPANAHFTHLEDVEFTYRKITWTHEVSGTSGSDDWRSPVAG”, the protein production result is “not failed”.

Consider “MATQLVKGNTAVIIGAMYAGCDCYFGYPITPASEILHEASKYFPMVGRKFVQAESEEAAINMVYGAASTGKRVLCATSGPGMSLKQEGISFLAGSELPCVLVNVQRAGPGLGNIGPEQADYNQAVKGGGHGNYKNIVLAPNSVQEMCDCTAKAFELATKYKNPVIVLSDGVLGQMVEPLKFPEQAIKPEIDESWAVRGTKETRKNLVTSIFLDFKQLEEFNYALQEKYEIIKENEQDFEGYQLDDAEIILVSYGISSRISKTAVDVARKEGIKAGLFRPKTLFPFPEKELNKLAEKKCTFISVEMSNGQMAEDIKLATCCKRPIELVNRLGGNLIEVDQILAKIKEIAGGN”, for which the protein production entry is listed as “failed”.

On to “MATRNALRIVSRRFSSGKVLSEEERAAENVFIKKMEQEKLQKLARQGPGEQAAGSASEAKVAGATASASAESGPKVSEDKNRNYAVVAGVVAIVGSIGWYLKAGGKKQPEVQE”, for which the protein production entry is “failed”. For “MATSGFKHLVVVKFKEDTKVDEILKGLENLVSQIDTVKSFEWGEDKESHDMLRQGFTHAFSMTFENKDGYVAFTSHPLHVEFSAAFTAVIDKIVLLDFPVAAVKSSVVATP”, the protein production result was “not failed”. As to “MATSGTYVTEVPLKGSAKNHYKRWKSENQLFPDAIGHHIQGVTVHEGDWDSHGAIKSWNYTCDGKQEVFKEKRELDDQKMAVTFRGLDGHVMEQLKVYDVIFQFVPKSQEGCVCKVTMFWEKRYEDSPEPIKYMKFVTSLAADMDDHILKNQSKA”, the protein production result was “failed”. “MATTNYSMIFIGNLQVAVDRSSLYESSDYSSFVARECLNKDSAMKPYDIFIFEKDEHFSVEDHYTAGNSSNESNTRPSDIFLKKKLVGLNPSILQLNREKRKATLKFSGDNKDILQSTLSSSKNINLSGGLFVSREYENKYVKFGARMRCDLVNRMKDVTLAWHESVSSTSDKNVELSSVENHKIAPKADGPGNSSNESSSSPFDIFLKKKVMRLKPSFLELNREKKKAAKGFSGIVIRPGMVLLKNYLSINNQVMIVNKCRQLGLGEGGFYQPGFQDGGLLHLKMMCLGKNWDCQTRRYGEIRPIDGSVPPRIPVEFSQLVEKAIKESKSLVATNSNETKGGDEIPLLLPDICVVNFYTSTGKLGLHQDKGESKKSLRKGLPIVSFSIGDSAEFLYGDQKDVDKADTLILESGDVLIFGERSRNVFHGVRSIRKILPPRLFFRKQIFNQVV”: the protein production entry is reported as “failed”. With “MAVFVALGAFLMTLAGGWTAQRVTDRRHLVLGLAGGLMLGVVGLDLLPEALEAAGDEVFGVPAALLLFVAGFLLAHLVERLLAARRAAHGADEHEHRSPEVGLTAAAAMVGHSAMDGVAIGAAFQVGGGMGAAVAMAVIAHDFADGFNTYTLTSLYGNARRRAVAMLVADAIAPVLGASSTLLFTIPEGALGAYLGLFGGVLLYLAAAEILPEAHHEHPARSTLLCTVAGAAFIWLVVGIAE”, the protein production result is given as “failed”.

Regarding “MAVGKKDIECPPYAEGTPLSDADIKEKRVTYVEDHPDIRYSWTAGQAISKFLNGLKEGKILGVKCNKCGRVMVPPRMFCELCYKPIDGWVELKDTGTVETFSISYIDPDARPLPEPVIVAVISIDGASPHMGIMHILDEVKPEDVYIGMKVKAVWKSEEEREGAITDIKYWKPLEGLEHHHHHH”, the protein production result is recorded as “failed”.

In the case of “MAVLYAGRPVQKCERSRLMFNIDQPDSAPDNEDHDGDVVMHGQGSFFGRRKGHKLRAHQADLIENLLPHLSLQIDSPAPEPLTTLFDPPVEHMRLEIGFGGGEHLIAEALAHPDTGFIGAEPYVNGMAKILARIEAENIRNIRLFAGDASELLAWVPAGSLARIDLIHPDPWPKRRHWKRRFVQDATVAAMARALTPHGEFRFVCDIDGYTAWTLAHLLRAPCFDWLAQRADDWRKPWPNYTMTRYGRKAEREGRRANYLRFERL”, the protein production result was “failed”. Turning to “MAVQLLENWLLKEQEKIQTKYRHLNHISVVEPNILFIGDSIVEYYPLQELFGTSKTIVNRGIRGYQTGLLLENLDAHLYGGAVDKIFLLIGTNDIGKDVPVNEALNNLEAIIQSVARDYPLTEIKLLSILPVNEREEYQQAVYIRSNEKIQNWNQAYQELASAYMQVEFVPVFDCLTDQAGQLKKEYTTDGLHLSIAGYQALSKSLKDYLY”, the protein production entry was “not failed”. Turning to “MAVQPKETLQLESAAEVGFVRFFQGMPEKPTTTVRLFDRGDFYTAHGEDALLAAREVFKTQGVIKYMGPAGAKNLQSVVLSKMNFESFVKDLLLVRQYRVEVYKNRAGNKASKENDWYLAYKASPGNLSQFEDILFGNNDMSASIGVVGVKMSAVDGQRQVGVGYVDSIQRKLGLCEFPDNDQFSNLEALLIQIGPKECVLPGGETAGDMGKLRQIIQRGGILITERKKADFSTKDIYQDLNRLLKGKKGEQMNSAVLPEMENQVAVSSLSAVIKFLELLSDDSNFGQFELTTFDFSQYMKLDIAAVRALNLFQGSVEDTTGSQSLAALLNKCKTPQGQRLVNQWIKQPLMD”, the protein production result is recorded as “failed”.
